Data as given in the supplement of paper PMC12764529.
± gives the half width of the 95% confidence interval.

Columns and labels:
[1] = folding stability dG unfold (combined trypsin and chymotrypsin); higher = more stable
In short: (§1)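 Unfolding free energy was derived, per protease or combined, against a sequence-predicted unfolded-state K50 and a shared folded-state K50, starting from K50 inferred by Bayesian fitting of sequencing counts. Digestion with trypsin and chymotrypsin was carried out on designed mini-proteins under 80 residues without cysteine in a PA-tagged cDNA display construct. Only designs with AlphaFold2 dimer inter-PAE above 15 were kept.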

[2] = folding stability dG unfold from trypsin proteolysis; higher = more stable
In short: as §1

[3] = folding stability dG unfold from chymotrypsin proteolysis; higher = more stable
In short: as §1

Sequence	folding stability dG unfold [1] [kcal/mol]	folding stability dG unfold [2] [kcal/mol]	folding stability dG unfold [3] [kcal/mol]
SMPEKVTFPFNIPLEEYSLEEIKEAVRERLEKEGYKVLKPDLFPEQEKLAKEAPPEAELPLLVEALVVPGSA [r9_1163_TrMRF]	0.0434 ± 0.28	0.411 ± 0.078	-0.19 ± 0.25
SMPEPLVLRVRVRDPENPEPVLEFELVIPPDGGVLVLARHPDRVEVREMPLEEAIDLLLSLPFEIEEVEGSA [r9_470_TrMRF]	3.14 ± 0.14	2.85 ± 0.068	3.32 ± 0.085
SMPEVETVTLTLTLVDEETGEEVTIEITATRVDGYLVLTMKVEVTVNGKKYTIEMTIVVKPGEEITLTLESA [r9_1015_TrROS_Hall]	> 6	3.99 ± 0.33	5.85 ± 0.37
SMPKTIELEIDEDLPEEEVRARLLAQGFEEIEFHELEDPEVRRVTATRPEDDETVVVTVRPPPVPPDAPGSA [r9_1090_JUSTAS]	2.28 ± 0.18	2.38 ± 0.096	2.29 ± 0.079
SMPLKVTVEVYEPGGNPLGSKTYEVEPGETLTFTFPRPVKGRVTITDPNADNPQTVTGDPATGTLTFPLVSA [r9_272_JUSTAS]	0.858 ± 0.069	0.587 ± 0.056	0.909 ± 0.086
SMPLSEEEARALAEALAAEVAAAAAAAGVAGVEVPVEISRTEEGGWTITLTVTLHAGAAPVGVRPVVVEVAS [r1_364_JUSTAS]	1.59 ± 0.081	1.19 ± 0.027	1.81 ± 0.026
SMPMTVEEFLEANPDVILIRLPNEKVIFINPEEEKAFVLLPETGEVLVIDATLEEVLELVPEFGAEILDESA [r9_721_TrMRF]	2.34 ± 0.052	2 ± 0.087	2.558 ± 0.025
SMPNTIEEIRFTFTLPDDTPVESEVDPDGKVTGTYPDGLKIEATLEPDSGKLTVKVTFPDGLPAEATIDLSA [r9_99_TrMRF]	1.7 ± 0.089	1.6 ± 0.09	1.78 ± 0.042
SMREITVTLPSEELAEELREAAEALGVEEVEVSRLPEDRLEIRIKTNSDPESVIQALKDLAEKRGLEVAASA [r9_1003_JUSTAS]	1.61 ± 0.085	1.73 ± 0.074	1.66 ± 0.086
SMRIVTEDGQELTIVLPKVPPNMTPEQLRKALEEAGVEVEEITFDEETGEVTVKIRFKDAEKAEEALKKASA [r9_1154_TrROS_Hall]	1.21 ± 0.14	1.51 ± 0.059	0.957 ± 0.12
SMRVRPDGYAVVIEVRVTEDAGPPPPPFEAIRDPETDRVTVVAGATPEEIVAFAEFPGVEVERIEVIPLLSA [r9_827_TrMRF]	0.572 ± 0.099	0.24 ± 0.1	0.675 ± 0.086
SMSLTIPEELIEAIKKALEELEPGEEVTITYNLPDGSVITVKVVGKGEVTITVYSSPDSQTQTYTFEIKESA [r9_132_JUSTAS]	3.25 ± 0.069	3.15 ± 0.061	3.313 ± 0.023
SMSPEIVEKIRKFLEEKGYSFTVERIPETGKVIINIDVRGNGKTRRVNIVFDENDPEKGIDLIKEIIESGSA [r9_42_TrMRF]	4.22 ± 0.085	3.51 ± 0.1	4.5 ± 0.076
SMTEELVIDFPDGVKATVRRFGDGEVTITIDWPTDNPELRKKGGIKALVDAIAKELGLDPSKVKVYTRNASA [r9_401_TrMRF]	3.75 ± 0.11	3.05 ± 0.086	4.12 ± 0.087
SMTKTIPVTIEVDPSLSEEEIEALVEKVKEEIKEKAEAEGGKVKVTVTIEPDPNKPVVHGTITITKPKKLSA [r9_1161_JUSTAS]	0.165 ± 0.13	0.699 ± 0.049	-0.499 ± 0.18
SMTLIVRVEVENENGEKIEKEVEVEVEPGETIEELLKKLNLSEEEVKKVKIEVYVIKDGKLEKKEFTLEKSA [r9_755_TrROS_Hall]	2.29 ± 0.35	1.29 ± 0.2	2.61 ± 0.077
SMTLPLLFVFPVNSPEELEKARKLAEEEVKELAEELGVKVKIEKVEYFVNPEGDYVLIRAYVTVTSPEEESA [r9_105_TrMRF]	3.76 ± 0.086	3.18 ± 0.054	4.07 ± 0.1
SMTLTIEVDPNDPAKVKALIDSTPPDTTVTLVFPQEDGSKPVKTITVKPPLEKPISPENMTPKNVAARKKSA [r9_1103_JUSTAS]	0.118 ± 0.18	-0.782 ± 0.69	0.481 ± 0.099
SMTPEEEAKRKAEEEAEKLKEEIKKKLKEEGVPKNVTFKFERDIEITLTDENGNVIGTRKIKIKFTVPLPSA [r9_494_JUSTAS]	1.85 ± 0.39	2.14 ± 0.29	1.79 ± 0.13
SMTVKIELEVEIEVPETPEELRKLAEALAEELGIEEVKVVEIEYDPETKTVRVKVEITVKLPPPPPEEEESA [r9_918_TrROS_Hall]	3.13 ± 0.21	3.11 ± 0.14	2.89 ± 0.25
SMTVSATAVPFGDRLVVTVTVTVDPTLFPDRPPGPAVWERVARELARELGIDSVTLAPLPDDTFVALFDDSA [r9_883_TrMRF]	2.48 ± 0.084	2.41 ± 0.069	2.46 ± 0.04

Sequence	folding stability dG unfold [1] [kcal/mol]	folding stability dG unfold [2] [kcal/mol]	folding stability dG unfold [3] [kcal/mol]
SMTVTLPDGTTVETSVSTEKLPNGTVVTTTTTTFTTPDGTVVPSTTVSVSPAPPTELPFTVLYRPEGSLLSA [r9_1168_JUSTAS]	0.00633 ± 0.083	0.0778 ± 0.015	-0.122 ± 0.16
SMVEVLPDGTVVLAGELPPNVSIEEFLNSLPGLEIASVEFEPDPETGVTHFVFVVTPDGRVYVGSVPLGKSA [r9_238_TrMRF]	2.25 ± 0.056	1.25 ± 0.04	2.63 ± 0.041
SMVFVEIFYDPIKKKKYIKIVIFLPPNDPEKIKELAEKIKKEIEKFFEELGLKVDKIEVFVFTFPPDFPLSA [r9_117_TrMRF]	4.6 ± 0.22	3.38 ± 0.23	4.99 ± 0.067
SMVKIYAAPNVPPEQREAIERLVKRILENPDIPIDPETIGKLIKEEAGNPELTIDRIEILPLVPPGVAEKSA [r9_620_TrMRF]	0.794 ± 0.099	0.79 ± 0.064	0.896 ± 0.082
SMVLELPAKDLKLEVNEDGTLKLTIKLENGKKVTFTFPAGDKITKIEVLSPDKVKIIFEKKPLKDLKTFLSA [r9_501_TrMRF]	1.61 ± 0.19	1.1 ± 0.047	1.76 ± 0.074
SMVTVETRPEEVLPDAEGRLRRVTVVITFPDGKTLTVDMEFPPDVSDEEVEERLRALVEELGVESIELLGSA [r9_1203_JUSTAS]	2.99 ± 0.17	3.7 ± 0.11	1.81 ± 0.086
SMVTVTFPDASPEEIRAAIEAHPDRDVVLVTAPGKEEELEKILKEYDYTKEEKALPDGRKVRVMKVKVPRSA [r9_1138_JUSTAS]	0.462 ± 0.25	0.784 ± 0.14	0.176 ± 0.42
SMYKVKVKLLITNPKTGEKLEVEVEATLEEAEKLAEELEKKYPELNWKVEIKEIEIYPIPKPVLVKPGEASA [r9_14_TrMRF]	3.46 ± 0.22	2.45 ± 0.34	3.51 ± 0.096
SNFPPGQQIKFTFRLPDNGMKIKIEVHVHPDGYVQVRMERENPDNGKRVKITFYVPGPTLDEILDFIEQFSA [r9_618_TrROS]	3.52 ± 0.08	2.97 ± 0.09	3.852 ± 0.038
SNIEIEPYQPGEPREYEIPPGKLKITFYQDPGPMYIRVKDPGNGEPVEIPIPMERGDWDNAAKKILKAIKSA [r9_982_TrROS]	0.802 ± 0.32	0.81 ± 0.14	0.454 ± 0.27
SNIRIEVDPPNGVIRVTYTFPGDSLSDIKDEIVEYIQKLGFPIEVDIDKIEPMNNYWRVTAYIKIPPGAISA [r9_347_TrROS]	4.18 ± 0.086	3.21 ± 0.095	4.56 ± 0.056
SNNNEVTIEIMIMFKYPRPEYDPDNGKPEPEPVYFMFPIKIEGKADDPEDAKRAADNILDRFLKDPDYIMSA [r9_77_TrROS]	2.6 ± 0.17	1.79 ± 0.12	2.95 ± 0.045
SNPDDQKKAKPIEIEIEIDFKPERERDPDGKERPRFEFDIEIKIPPGAPLDMITIYIRFDDWPFMITIPASA [r9_488_TrROS]	2.95 ± 0.28	1.8 ± 0.075	3.42 ± 0.15
SNPNIKVTTTSETLPDNTLRTTETNPDTGTVTETLVPTDGNGPKTVKTTTTTTDTSTGKKTITTTTTTIPVS [r1_45_JUSTAS]	0.529 ± 0.085	-1.33 ± 0.26	0.99 ± 0.02
SPAEINIEFDPEEGRLRIKVKLEWPGGDPEPIATHEVPIGNNRYITYPIYKHPDGPWRIEDIDIMPPDELSA [r9_780_TrROS]	0.727 ± 0.35	0.283 ± 0.14	1 ± 0.15
SPAKPVPIEITMHGDGMFEIRLPNGKEISFPNPDGQWAQATVDPDEGTIEIEMYNNGKRHTFEIPLPPNDSA [r9_226_TrROS]	0.459 ± 0.16	0.153 ± 0.14	0.499 ± 0.17
SPDPGMKPRPMYMIRIKIEVTTPDGKKRGKHDFIIQSPEEAKEFIEELAENRGMKIKKIDIDIYPMPWLKSA [r9_1226_TrROS]	2.18 ± 0.1	1.5 ± 0.044	2.56 ± 0.061
SPDVKILDIERHPDDGSISIKLKFPDGWPVTLHYNPDGSHTIHNPGNGAPIQIKYDGNQLKIELPDNLKFSA [r9_233_TrROS]	0.729 ± 0.083	0.478 ± 0.023	0.868 ± 0.086
SPEAVAEALRKLGFDLDIERIDVEPLPDGTYRVTVTRGDKPVFTVTVTAPPPPPPVFVVRDADGTERLVRSA [r9_442_TrMRF]	1.98 ± 0.036	0.704 ± 0.054	2.4 ± 0.03
SPEKEIKVKYELPEPGSGPVKVEATFTINPKTGEVKMPVTLTRPGSSSQVNLPEELLKELKNKVLEELGKSA [r9_1136_JUSTAS]	0.442 ± 0.083	-0.621 ± 0.29	0.795 ± 0.089
SPEVPPGKTLEREFKGVPVRLTREEESGTIHITVYPPTDPSKPLYEAEFSPDELRPIPLPPEVAAALAAESA [r9_1051_JUSTAS]	-0.13 ± 0.16	-0.681 ± 0.24	0.0553 ± 0.1
